# Target: CD19 antigen on CD19 positive RS4;11 and Raji cells (human) (UniProt P15391)
# Test: cell-based or functional assay
# Chain of UniProt P15391 (P15391 20-556): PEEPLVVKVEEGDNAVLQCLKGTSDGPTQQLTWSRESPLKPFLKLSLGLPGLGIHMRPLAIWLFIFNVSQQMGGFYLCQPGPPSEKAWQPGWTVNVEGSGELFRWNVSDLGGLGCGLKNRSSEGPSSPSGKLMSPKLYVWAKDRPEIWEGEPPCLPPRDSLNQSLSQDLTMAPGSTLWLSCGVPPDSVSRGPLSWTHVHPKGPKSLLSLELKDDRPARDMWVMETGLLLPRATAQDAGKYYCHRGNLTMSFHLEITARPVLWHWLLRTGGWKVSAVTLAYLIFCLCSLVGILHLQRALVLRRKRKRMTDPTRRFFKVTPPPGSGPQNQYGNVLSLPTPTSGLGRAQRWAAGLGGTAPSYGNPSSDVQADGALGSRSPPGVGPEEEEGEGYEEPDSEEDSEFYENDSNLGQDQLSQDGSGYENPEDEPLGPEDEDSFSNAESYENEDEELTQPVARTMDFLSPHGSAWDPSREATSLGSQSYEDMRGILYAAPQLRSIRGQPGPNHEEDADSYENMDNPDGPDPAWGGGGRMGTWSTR
substance,measurement,value
FMC63 artificial CAR19,"cytotoxicity, RS4;11 cells, CAR19 T cell:tumor cell 5:1, donor 1, 4 h co-culture (calcein AM/PI flow cytometry)",45.8%
same,"cytotoxicity, RS4;11 cells, CAR19 T cell:tumor cell 5:1, donor 2, 4 h co-culture (calcein AM/PI flow cytometry)",65.6%
same,"cytotoxicity, RS4;11 cells, CAR19 T cell:tumor cell 10:1, donor 1, 4 h co-culture (calcein AM/PI flow cytometry)",55.8%
same,"cytotoxicity, RS4;11 cells, CAR19 T cell:tumor cell 10:1, donor 2, 4 h co-culture (calcein AM/PI flow cytometry)",77.1%
same,"cytotoxicity, Raji cells, CAR19 T cell:tumor cell 1:1, donor 1, 4 h co-culture (calcein AM/PI flow cytometry)",4.17%
same,"cytotoxicity, Raji cells, CAR19 T cell:tumor cell 1:1, donor 2, 4 h co-culture (calcein AM/PI flow cytometry)",46.4%
same,"cytotoxicity, Raji cells, CAR19 T cell:tumor cell 2:1, donor 1, 4 h co-culture (calcein AM/PI flow cytometry)",25.3%
same,"cytotoxicity, Raji cells, CAR19 T cell:tumor cell 2:1, donor 2, 4 h co-culture (calcein AM/PI flow cytometry)",59.9%
same,percentage of CD19 positive RS4;11 cells remaining after 24 h co-culture with CAR-T cells,45.1%
same,percentage of CD19 positive Raji cells remaining after 24 h co-culture with CAR-T cells,7.42%

# From patent US20210069244A1
